Data as given in publication PMC7305997 (ACS chemical biology, 2020).
Ends that are not written are not given here.

Columns and labels:
full length human CIB1 = molecular target: T1, full length human CIB1 (Homo sapiens, UniProt Q99828); test: Isothermal titration calorimetry; settings: ITC, 25°C, one site binding model; replicates as for Kd
T1 sequence (Q99828 1-191): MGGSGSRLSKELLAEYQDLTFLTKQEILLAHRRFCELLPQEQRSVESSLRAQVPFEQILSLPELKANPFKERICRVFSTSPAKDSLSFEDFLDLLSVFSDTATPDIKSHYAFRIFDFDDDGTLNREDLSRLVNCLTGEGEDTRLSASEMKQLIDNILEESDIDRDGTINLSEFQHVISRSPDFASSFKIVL

biotinylated CIB1 = molecular target: T2, biotinylated CIB1 (Homo sapiens, UniProt Q99828); test: biochemical; assay type: binding
T2 sequence (Q99828 1-191): T1 sequence (Q99828 1-191)

[1] = molecular target: T3, Full length human CIB1 (calcium and integrin binding protein 1), N-terminal hexahistidine tag (human, UniProt Q99828 1-191); test: ITC
T3 sequence (looked up): T1 sequence (Q99828 1-191)

| Molecule | dH [1] [kcal/mol] | stoichiometry N [1] | also measured |
| --- | --- | --- | --- |
| EDGGSFWYGAMKALYG-NH2 [UNC10245092] | – | – | n (binding stoichiometry) (full length human CIB1): 1.1 ± 0.1; ΔH (full length human CIB1): -14.4 ± 2.2 kcal/mol; IC50 (biotinylated CIB1): 46 ± 13 nM; Kd (biotinylated CIB1): 46 ± 13 nM |
| Ac-FWYGAMKALYG [Acetyl short (Ac-FWYGAMKALYG)] | -14 | 1.1 | Kd [1]: 52.1 nM |
| EDGGSFWYGGMKALYG [UNC10245092 A5G] | -7.7 | 1 | – |
| EDGGSFAYGAMKALYG [UNC10245092 W2A] | -5.9 | 0.67 | – |
| EDGGSAWYGAMKALYG [UNC10245092 F1A] | -9.8 | 0.94 | – |
| EDGGSFWYGAAKALYG [UNC10245092 M6A] | -8.1 | 1 | – |
| EDGGSFWAGAMKALYG [UNC10245092 Y3A] | -16.1 | 1 | – |
| EDGGSFWYGAMKAAYG [UNC10245092 L9A] | -8.8 | 0.99 | – |
| EDGGSFWYGAMKALAG [UNC10245092 Y10A] | -7.1 | 1.1 | – |
| EDGGSFWYGAMKGLYG [UNC10245092 A8G] | -13.8 | 1 | – |
| H-EDGGSFWYGAMKALYG-NH2 [UNC10245092 (NH2-EDGGSFWYGAMKALYG-amide)] | -14.4 | 1.1 | Kd [1]: 29.4 nM |
| Ac-EDGGSFWYGAMKALYG [Acetyl long (Ac-EDGGSFWYGAMKALYG)] | -16.1 | 1.1 | Kd [1]: 45 nM |
